The record followed here is publication PMC10613289, “A circular RNA activated by TGFβ promotes tumor metastasis through enhancing IGF2BP3-mediated PDPN mRNA stability”.

Data set [1] has as its target T1, IGF2BP3 (recombinant GST fusion) (UniProt O00425 1-579). The data set can be described thus: pull-down; EMSA: 10 mM HEPES pH 7.3, 20 mM KCl, 1 mM MgCl2, 1 mM DTT; competition: 150 mM NaCl, 20 mM Tris-HCl pH 7.5, 1.5 mM MgCl2, 1 mM DTT, 10% glycerol, 4 °C; pull-down at 4 °C, wash 20 mM Tris-HCl pH 7.5, 1 mM EDTA, 450 mM NaCl. Particulars: protein: recombinant; tags: GST (pGEX-6P-1); label: 3' biotin. (A gel shift assay detects complexes by their altered migration in electrophoresis.)

For data set [2], the target named is T1, IGF2BP3 (recombinant GST fusion). As to the kind of experiment: competition; displaces biotin-circITGB6 (1 uM), protein 1 uM; EMSA: 10 mM HEPES pH 7.3, 20 mM KCl, 1 mM MgCl2, 1 mM DTT; competition: 150 mM NaCl, 20 mM Tris-HCl pH 7.5, 1.5 mM MgCl2, 1 mM DTT, 10% glycerol, 4 °C; pull-down at 4 °C, wash 20 mM Tris-HCl pH 7.5, 1 mM EDTA, 450 mM NaCl. The following applies: tags: GST (pGEX-6P-1).

For data set [3] the target is unchanged. As to the kind of experiment: competition; against biotin-circITGB6 (1 uM), protein 1 uM; EMSA: 10 mM HEPES pH 7.3, 20 mM KCl, 1 mM MgCl2, 1 mM DTT; competition: 150 mM NaCl, 20 mM Tris-HCl pH 7.5, 1.5 mM MgCl2, 1 mM DTT, 10% glycerol, 4 °C; pull-down at 4 °C, wash 20 mM Tris-HCl pH 7.5, 1 mM EDTA, 450 mM NaCl. The following applies: tags: GST (pGEX-6P-1).

T1 sequence (O00425 whole entry, the tested form may be a part): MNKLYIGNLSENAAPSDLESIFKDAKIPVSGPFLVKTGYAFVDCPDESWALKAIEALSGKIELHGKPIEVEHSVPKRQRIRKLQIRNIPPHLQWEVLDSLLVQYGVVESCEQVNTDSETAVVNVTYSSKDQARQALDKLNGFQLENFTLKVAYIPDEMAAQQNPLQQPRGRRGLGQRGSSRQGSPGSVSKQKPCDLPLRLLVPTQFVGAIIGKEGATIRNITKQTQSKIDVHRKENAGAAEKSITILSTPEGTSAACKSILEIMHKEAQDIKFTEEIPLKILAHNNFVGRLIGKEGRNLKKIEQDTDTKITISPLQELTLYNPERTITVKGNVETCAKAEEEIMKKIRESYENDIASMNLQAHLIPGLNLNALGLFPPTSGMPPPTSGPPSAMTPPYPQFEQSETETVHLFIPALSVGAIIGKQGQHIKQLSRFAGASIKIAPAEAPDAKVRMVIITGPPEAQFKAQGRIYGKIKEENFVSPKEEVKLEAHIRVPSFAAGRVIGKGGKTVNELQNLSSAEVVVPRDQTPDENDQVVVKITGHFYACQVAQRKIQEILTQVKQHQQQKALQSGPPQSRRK

Consider ACUCUAAACGGAGCUGCAUUGAGUGCCACC (ssRNA) [M1 (M1-WT) probe], for which, in data set [1], the binding result is “binds”.
In the case of ACUCUAAACGGAGCUGCAUUGAGUGCCACC (ssRNA) [M1 competitor, unlabeled], in data set [2], the binding result is reported as “binds”.
On to ACUAGCUGGUGCGACCAUCAGUGAAGAAGA (ssRNA) [M2 competitor, unlabeled], for which, in data set [3], the binding result is “no binding”.
